Measurements published in patent US20200369727A1, “COMPOSITION AND METHOD FOR TREATING A PATIENT HAVING LIVER CIRRHOSIS” (priority 2019, published 2020).

Target: T1, NS3 of SEQ ID NO: 3 (HCV NS3 genotype 4a) (Hepatitis C virus genotype 4a, UniProt O39929)
T1 construct: T7 tag (N); 6-His tag (C); made in house; host or cells: E. coli Rosette (DE3) pLysS
Assay: Differential static light scattering (DSLS), aggregation temperature of NS3 with peptide
Type: binding
Details: NS3 of SEQ ID NO: 3 with peptide in 1:2 ratio, room temperature, two hours, shaking
Experimental: The binding of SEQ ID NO: 4 and its variants of SEQ ID NO: 6-20 to the NS3 of SEQ ID NO: 3 were determined by differential static light scattering method using Stargazer-2™ (Harbinger Biotechnology and Engineering Corporation, Toronto, Canada). The method assesses protein stability by monitoring aggregate formation upon gradual increase of temperatures. NS3 domain of SEQ ID NO: 3 stability upon binding to NS4A of SEQ ID NO: 4 was measured by monitoring denatured protein aggregation upon increasing temperature from 25 to 85° C. in 0.5° C. increments at 600 nm. […] The mixture and control were incubated at room temperature with gentle shaking for specified time. […]. Afterwards, 10 μL of the mixture was transferred into a clear bottom Nunc 384-well plate and covered by 10 μL paraffin oil to minimize evaporation. Protein aggregation was monitored by tracking the change in scattered light that was detected by a CCD camera. Snapshot images of the plate were taken every 0.5° C. The pixel intensities in a preselected region of each well were integrated using image analysis software to generate a value representative of the total amount of scattered light in that region. […] Aggregation was monitored and analyzed to assess the effect of NS4A of SEQ ID NO: 4 and its synthetic analogues of SEQ ID NO: 6-20 on the stability of the NS3 as an indicator of binding. […]

## KKGSVVIVGRIVLSGKK [SEQ ID NO: 4, reference compound]
  ΔTagg (Tagg shift, aggregation temperature): 2.83 °C
